From US20240352136A1 (Hoffmann-La Roche, published 2024)

Biological target: T1, human CD25 (alpha subunit of the interleukin-2 receptor, IL2RA) (human, UniProt P01589 22-272)
T1 sequence: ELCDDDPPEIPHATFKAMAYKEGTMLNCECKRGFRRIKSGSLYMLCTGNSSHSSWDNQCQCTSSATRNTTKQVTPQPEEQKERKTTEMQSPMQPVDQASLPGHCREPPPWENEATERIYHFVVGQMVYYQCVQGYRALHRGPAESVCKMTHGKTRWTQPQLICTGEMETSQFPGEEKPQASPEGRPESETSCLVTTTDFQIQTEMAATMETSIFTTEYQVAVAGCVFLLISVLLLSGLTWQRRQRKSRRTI
Experiment: cell-based or functional assay

- ADCC EC50, AML-22 target cells with activated NK cells, flow cytometry readout, 17 h: ~0.03 µg/mL
- ADCC EC50, EOL-1 target cells with activated NK cells, flow cytometry readout, 17 h: ~0.03 µg/mL
- ADCC EC50, EOL-1 target cells, flow cytometry readout: 0.03 µg/mL
B1: CD25 Mab (RG6292) (antibody, human IgG1, kappa, V domains shown)
VH: QVQLVQSGAEVKKPGSSVKVSCKASGGTFSSLAISWVRQAPGQGLEWMGGIIPIFGTANYAQKFQGRVTITADESTSTAYMELSSLRSEDTAVYYCARGGSVSGTLVDFDIWGQGTMVTVSS
VL: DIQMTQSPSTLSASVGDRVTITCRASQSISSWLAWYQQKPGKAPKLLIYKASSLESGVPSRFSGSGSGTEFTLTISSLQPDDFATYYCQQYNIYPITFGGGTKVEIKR
modifications: afucosylated Fc glycan (produced using the GlymaxX technology)
- ADCC EC50, EOL-1 target cells, CytoTox-Glo luminescence readout: 0.035 µg/mL
